Data published in article doi:10.1101/2020.10.21.349639 (bioRxiv, 2020).

Target: T1, NorC (wild type) (Staphylococcus aureus subsp. aureus COL …)
T1 chain: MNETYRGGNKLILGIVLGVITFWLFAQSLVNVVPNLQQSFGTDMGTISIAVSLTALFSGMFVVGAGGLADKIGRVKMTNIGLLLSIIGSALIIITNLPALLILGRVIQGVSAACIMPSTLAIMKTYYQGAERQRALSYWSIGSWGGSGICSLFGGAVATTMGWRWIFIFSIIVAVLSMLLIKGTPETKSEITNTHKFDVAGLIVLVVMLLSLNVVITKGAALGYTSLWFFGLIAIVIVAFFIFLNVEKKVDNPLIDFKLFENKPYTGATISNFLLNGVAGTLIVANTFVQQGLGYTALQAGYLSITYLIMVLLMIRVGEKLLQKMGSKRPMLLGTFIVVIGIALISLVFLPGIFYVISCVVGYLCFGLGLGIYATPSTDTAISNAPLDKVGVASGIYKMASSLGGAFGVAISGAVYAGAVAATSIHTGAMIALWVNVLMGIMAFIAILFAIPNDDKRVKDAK
Test: ITC

B1: single-domain Indian camelid antibody (ICab), Zn2+-bound (VHH)
VHH: QVQLEESGGGSVQAGGSLRLSCAASGYMYSTYSTYCMGWFRQAPGKEREGVAFIKRGDHSTYYTDSVKGRFTISQDSAKNTVSLQMNNLKPEDTAIYYCAADFAHSFLLSVHSGAGQYSYWGQGTQVTVSS
- Kd: 38 ± 5 nM
